For one protein, Km and Vmax results are on record in article PMC3995211.

Substrate in series [1]: NC(=O)C1=CN([C@@H]2O[C@H](COP(=O)(O)OP(=O)(O)OC[C@H]3O[C@@H](n4cnc5c(N)ncnc54)[C@H](OP(=O)(O)O)[C@@H]3O)[C@@H](O)[C@H]2O)C=CC1
Nature of the series: cells, lysate or membranes. It counts as biochemical, Fructilactobacillus sanfranciscensis. Conditions: 50 mM potassium phosphate pH 7.0, 25 °C, air-saturated O2 (250 µM), cell free extract.

Substrate in series [2]: NC(=O)C1=CN([C@@H]2O[C@H](COP(=O)(O)OP(=O)(O)OC[C@H]3O[C@@H](n4cnc5c(N)ncnc54)[C@H](O)[C@@H]3O)[C@@H](O)[C@H]2O)C=CC1
Kind of series: cells, lysate or membranes. It counts as biochemical, Fructilactobacillus sanfranciscensis. Conditions: 50 mM potassium phosphate pH 7.0, 25 °C, air-saturated O2 (250 µM), cell free extract.

B1: LsNOX (Lactobacillus sanfranciscensis NOX) (Fructilactobacillus sanfranciscensis) (protein)
chain: MKVIVVGCTHAGTFAVKQTIADHPDADVTAYEMNDNISFLSCGIALYLGKEIKNNDPRGLFYSSPEELSNLGANVQMRHQVTNVDPETKTIKVKDLITNEEKTEAYDKLIMTTGSKPTVPPIPGIDSSRVYLCKNYNDAKKLFEEAPKAKTITIIGSGYIGAELAEAYSNQNYNVNLIDGHERVLYKYFDKEFTDILAKDYEAHGVNLVLGSKVAAFEEVDDEIITKTLDGKEIKSDIAILCIGFRPNTELLKGKVAMLDNGAIITDEYMHSSNRDIFAAGDSAAVHYNPTNSNAYIPLATNAVRQGRLVGLNLTEDKVKDMGTQSSSGLKLYGRTYVSTGINTALAKANNLKVSEVIIADNYRPEFMLSTDEVLMSLVYDPKTRVILGGALSSMHDVSQSANVLSVCIQNKNTIDDLAMVDMLFQPQFDRPFNYLNILGQAAQAQADKAHK
notes: synthetic gene, plasmid pMSsN2, E. coli BL21 (DE3), untagged, cell free extract, about 50 kDa
With B1, in series [1], the Km (usually the substrate concentration at which the rate is half of its maximum) was 5 ± 1 µM and the Vmax (commonly the top rate of the reaction or transport when substrate is in excess) came to 1.1 µmol/min/mg. For the same protein, in series [2], the Km is 9 ± 1 µM and the maximal velocity (Vmax) came out at 2.2 µmol/min/mg.
